These results are taken from publication PMC10397247.

Assay in all cases: two-hybrid library CCNG1;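 also: natural log of median RNA to DNA barcode read ratio; higher means stronger binding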
In assay [1] the target is T1, P7SH.
T1 chain: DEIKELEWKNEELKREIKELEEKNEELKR

Assay [2] has as its target T2, P8SH.
T2 chain: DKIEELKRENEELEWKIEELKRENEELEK

The target in assay [3] is T3, 4H235-bA.
T3 chain: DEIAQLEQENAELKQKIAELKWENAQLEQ

In assay [4] the target is T4, 4H2444-bA.
T4 chain: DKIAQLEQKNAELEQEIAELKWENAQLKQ

Assay [5] has as its target T5, 4H2518-bA.
T5 chain: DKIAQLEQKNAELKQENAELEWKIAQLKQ

Assay [6] has as its target T6, 4H2585-bA.
T6 chain: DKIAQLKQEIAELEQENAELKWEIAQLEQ

Assay [7] concerns the target T7, 4H264-bA.
T7 chain: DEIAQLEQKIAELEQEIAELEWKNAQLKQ

Assay [8] has as its target T8, 4H2760-bA.
T8 chain: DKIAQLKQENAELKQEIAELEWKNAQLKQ

Assay [9] deals with T9, 4H2859-bA.
T9 chain: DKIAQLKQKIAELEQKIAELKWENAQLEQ

The target of assay [10] is T10, 4H2931-bA.
T10 chain: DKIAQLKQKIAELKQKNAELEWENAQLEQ

The target in assay [11] is T11, 4H3041-bA.
T11 chain: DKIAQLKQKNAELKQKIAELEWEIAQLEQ

For assay [12], the target named is T12, 4H3297-bA.
T12 chain: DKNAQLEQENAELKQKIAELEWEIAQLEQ

In assay [13] the target is T13, 4H331-bA.
T13 chain: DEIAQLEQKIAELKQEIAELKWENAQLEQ

Assay [14] addresses T14, 4H3364-bA.
T14 chain: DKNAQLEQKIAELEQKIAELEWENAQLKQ

The target in assay [15] is T15, 4H3381-bA.
T15 chain: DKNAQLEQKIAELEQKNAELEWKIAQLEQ

Assay [16] has as its target T16, 4H349-bA.
T16 chain: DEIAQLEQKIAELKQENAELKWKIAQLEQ

Assay [17] deals with T17, 4H454-bA.
T17 chain: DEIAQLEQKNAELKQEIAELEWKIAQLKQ

For assay [18], the target named is T18, 4H56-bA.
T18 chain: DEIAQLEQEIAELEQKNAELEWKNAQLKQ

Assay [19] has as its target T19, 4H575-bH.
T19 chain: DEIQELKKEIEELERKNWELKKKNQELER

Assay [20] deals with T20, 4H730-bA.
T20 chain: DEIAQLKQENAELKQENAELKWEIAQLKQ

Assay [21] deals with T21, 4H796-bA.
T21 chain: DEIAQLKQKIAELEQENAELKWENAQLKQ

In assay [22] the target is T22, 4H932-bA.
T22 chain: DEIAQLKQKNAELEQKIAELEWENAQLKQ

The target of assay [23] is T23, 4H949-bA.
T23 chain: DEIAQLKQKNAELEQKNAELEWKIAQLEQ

In the case of DEIKELEWKNEELKREIKELEEKNEELKR [P7SH], the interaction score is -0.227 in [1] and 2.08 in assay [2].
As to DEIAQLEQENAELKQKIAELKWENAQLEQ [4H235-bA], the interaction score was 0.082 in assay [3]; -0.488 in [4]; -0.69 in [5]; -0.367 in [6]; -0.636 in assay [7]; 1.96 in assay [8]. Besides, the interaction score is -0.319 in assay [9]; -0.643 in assay [10]; 0.563 in assay [11]; -0.354 in [12]; -2 in assay [13]; -0.845 in assay [14]. Further, the interaction score in [15] was -0.985; in assay [16], -0.682; in assay [17], 0.0882; in assay [18], -1.05; in assay [19], -3.02; in assay [20], -0.952. In addition, the interaction score in [21] is -0.862; in assay [22], -0.974; in assay [23], -0.885.
